According to the DeepSol protein solubility set:

Assay: soluble on expression in E. coli; label from the status in PepcDB or PDB records

Row | Sequence | soluble on expression in E. coli
1 | MVINGLDILLQNPEVLRHRRVGLIANQTSVSMQLEYSWMLLKRAGVELTRIFSPEHGLFAIEQDQIAVGHQPDIGCEIVSLYGDSEHSLAPARELLDGLDLVLFDIQDVGSRYYTYVNTLALFMKAAEGLDIEIMVLDRPNPLGGSLIEGPQLDPAFHSFVGVMPLPVRHGLTAGEIAHFYRNYKKLDLNLNVIPMQGWSRQMLFPETCLPWVPPSPNMPSFEAAEVYPGMCLFEGLNVSEGRGTTTPFLLSGATFVDPEALAERLASMPLEGVVFRPTWFRPTFHKYAGEAIGGLYLHVTDHARFRPFATGVAMTCALYELYPEQLAFLDGVYEFRDDIPAFDLLAGSSTIRSMILDNRDTTAIIASWEKDEAEFAAIKPNFHLYNN | not soluble
2 | MPTRKSKILDVALSNSVISNLNIMAPIGSSDHNTIKFTVQLLQNISVPKKMIPDFSKLDWPCCATYFENIEWGHIRTMFSQAVPTMPMPETSKPVPQYLRSFEQMVKNQFSKTIMSKTMNDFIEYIYLARKYRKKLRKYLSNLEVKLFKKKGNTLIDNDENEIVSELDKANLLASYFEAQYTNQNNTNFALDDDFVSDQPIPWVTDAEVLKVIMASKKSCSVTSDQVPFTFIKILSPLISSVLAQIFNLSMMRGQVPHAWTESIVIPLDKITNANNPTDFRPISLTSHLCRVYERCILAKIELFLIDNKFWSQNQHGFRPKKSTVTNMLESLNDWSKSIDLGEQIDIIYLDFSKAFDRLPHDLLLDKLVSLRMNKNLLIWLNEFLSNRSFRVRIGQTLSSRKLATCGVPQGAVLSPLLFGIYVNDISSILPEKVACKQFADDTKLYVSTPKTESENNLQSALDAVVDWTRGSKLTLNQSETVHVTVGKRRTDFKYHLDGYPIERKAITRDLGFLISEKLDFSEHWRKCINLAKFQLANMFNQYSTSNKKLMILLYKTFIRPRLEYGTVVSSPTKKSDEKAIESVQNAFTRRLYSRIKKRYINPTDKDYKTAMERNELFDLQTLSTRRKIIDRIQVIRMNNGKVDLKTSEFFEQQETHTRSKKKYIWSTVPIKHRVFQTFILLMVLVQFSIGLGNFARDIRNFGGAGSGNKTCDPSRDNDCDSPATVPSSTTKAPRYRNNTTESPPPTPPSSPPAPEGIYSFLQNNFIPRKINNLPVFQDVTTKGIQHVILVSSRLRTSLQTEKSRISQNSISYLIIDFLKSITLEIEALTNTSNCKPNSKDLRCPGKPLFCKFKNFDAAECKCSEPRAKVCKEDFEFDAQREYCTKSVKHPKDLRCEGELLFFKFHWNTTACHCINHQRDRVCAHDFQSDEDKKYQCNKKPTDLRCKKQKLYCKFHLDDKDCRCFESNQKACKKGVSGFYSSNDTLKFPSSIWRQFKLYFKKILQIFNRQMRGIFNVIHHRLHHSARKT | not soluble
3 | MQFERISTEQKKLSLIQTFLHQNALKLDEQIEYFVVGYNDNEQIVVCGGLAGNIIKCVAIDESLRGSGVALQLITELVDLAYTLKRPHLFIYTKPEYATLFKSCGFYIISDANPYVVLLENSATRLQKQCSLWEKMRVDGNRIGSIVMNANPFTLGHRYLIEQALQQCDHLHLFIVGEDASQFSYTERFEMIQQGIFDLSNITLHSGSDYIISRATFPNYFLKDQLITDESYFEIDLKLFRLHIAQALGITHRFVGTELNCPVTAEYNRQMHYWLMDAEMNAPKINVIEIPRKTASNHIISASTVRKHLAEKNWAQLAEFVPMTTLNYLQKCGRF | soluble
4 | SNSSPPPANSANGDTTNNGENGQDLNLNFLDKIRLSTKRDAKEDEGEELPTELNTINSAGGFLVVSPDKLSVKYTNTNLHGHDVGVVQANKPAPIKCLTYYFEIFVKDSGIKGQIAIGFTKESFKMRRQPGWEVNSCGYHGDDGYLYRGQGKGEPFGPKFTKDDAVGGGINYASQEFFFTKNGTIVGKIPKDIRGHLFPTVAVHSQNEEVLVNFGKKKFAFDIKGYEASERNKQQLAIEKISIPPNIGYGLVKTYLLHYGYEETLDAFNLATKNTVPPIHIDQENAIDEDDSSYALKQRKNLRQLVRNGEIDTALAELQKLYPQIVQDDKSVVCFLLHCQKFIELVRVGKLEEGVNYGRLELAKFVGLTGFQDIVEDCFALLAYEKPEESSVWYFLEDSQRELVADAVNAAILSTNPNKKDVQRSCHLQSHLEKLLRQLTVCCLERRSLNGDQGETFRLRHVLNNNR | soluble
5 | QTLARVDLAYDDYDGIFDCEYAYKAWRDDCFRTAERGRGPVLHEDMTIASIGKDGKPIYTKEQYSIGSRTSRIYWRIYNKALEQKLANTGLVWYRSEVELKKWNVDVLLNPAGAYAALNDFAASISTAKKFNTKPVPTKRAALDLLASAHWMRRQYGKILNSLIEFHEGDIETVVGSLVRDGTKFTFPDTYG | not soluble
6 | MRRAELAGLKTMAWVPAESAVEELMPRLLPVEPCDLTEGFDPSVPPRTPQEYLRRVQIEAAQCPDVVVAQIDPKKLKRKQSVNISLSGCQPAPEGYSPTLQWQQQQVAQFSTVRQNVNKHRSHWKSQQLDSNVTMPKSEDEEGWKKFCLGEKLCADGAVGPATNESPGIDYVQIGFPPLLSIVSRMNQATVTSVLEYLSNWFGERDFTPELGRWLYALLACLEKPLLPEAHSLIRQLARRCSEVRLLVDSKDDERVPALNLLICLVSRYFDQRDLADEPSLEHHHHHH | soluble
7 | MAHHHHHHMSVSRFRHSTGHVAKPQRHLLNVTSSTALWDGSNTISCNDKFVAVPWQTFGGTAVFKHDTFGRLAPNPPLVLGQKGQIIDVKFDPFNDQKLFTASEDGSIFGWGIPAEGLQSNILSPLVELKGHNKKCGIISFHPSANGVLASAGVDRVIKVWDVERGTAVNTISSLSDYATGLEWNLRGSLFCVASRDKTLRVIDPRDCTVVSSVESHASARSQRCIWCKRKDTIMTLGCSKSQQRQIKLWDTRKMESPYSVTELDQSSAAFIPMYDEDLNLLILGSKGENNVKCFELMNEGLTFSYEVNSNDPMKGLCMMPKWSLDVKKCEFGRLYQLTYHSLFTIEMLLPRKQSCTEFQGDVFPSTFADHSAMSADEFFRGANADPREYDLSGMFDGHSPRLMGGSTPSPEKLPVAVQAAKPLMEAPKGETTTGREKSSVSVPESSEATSAPSDDKTEKHADPCADMTQRDILDKQRRLQELSEKVRTCHHEISALRKALHEKEAEMLQVLEDIQSI | not soluble
8 | MVDTMMNTNTDGVTAVPPIFPLPSTTPNRNNNNELAMLAQKQIVAGLLLQQPTIVQAAVNGTNSQKHLADIDYTNVIQTLQALGTTNLKAFSLLLDPQSQTSQLISEDTRPSASSSPSSTATAVSNSGQSNATSTSSSSTEPEYKPRNVREKVYADGYIMSFDKKSCCGTKEFWRCERKNDCNARMHSDINTREIVRKLHPHNHEKPSPEELAFYEQDFSTLHPNYCHPVKSINRSYMQRKLSRASHVSQALPIAPQQIKAEPMEVDTTNQTIQNFQQNNNLMLLASINAAATAAAAATSAGISPPVVGQKRVSTTVMPITLKSQRTTPKEEEDSSQLMSQEEFRITYELTKKLMEMMKPKTEIGVRWQGDEGSILLFLSHDNGAEENVFFPVVVMNRDEKSLITALEGFTGKRCEGKLALCYSQRVNVLVHEALISNWTHGKLFLVNTDAPALWRLTPVDAFGEPLNHV | not soluble
9 | MGSDKIHHHHHHAKKVKGNGDIITKEISVRDYSAIKVGSTAMGYSDSWFSLFSRGGNPSYVFGYTQGESASLRITIDENLYPYINVQVKNEELSISTENGTQLSPTRFKIEGTSKKLEKIKMSGCMDFVLRSALSGDDLEIIATRGSDVKMEQPINVSNCIIEATSGSDIIINDLTTRIIRGRASGGSDLKLTGKAENGEYSASGGSDIKAYDLILNQLECSASGGSDIYTHVTDYIKASASGGSDVHYKGSARSDTSTSGGSDIIKEGN | not soluble
10 | MSGPEELEAGASDSNAGGSSRQGQEQERVEPVLEGVPQPNDQESADEDLTARQPPIQPQVPNASDNLQVPPNLEYLIAVNPSQLITTIQIGAEVARLEELEDEYRQELELIRMTESLGEELLQKENELRSRAGYLGRLDVLENRRNYEDEAAENLAIRTVQNRVLLLRRARAELYERERIARKTFIWRLRRFKNPTDQSVNTWMETLNDRLNRVANSWERRREPHEQAIRDYERLVATRQRTEEDRRRERASNRAGPSNQEDYDSEDEDEHHVDELPDLLELLSLVVNPVIGGGGISTNRAEYLNPRGTEGLGADDPDLNDSGGTVYQSDEEESEDEAEIDHQEGPSNWRPKRPRRDDDEGGSGSSASMWNAPSTSSQALGRSC | not soluble
